Among the data in PMC12591160, “Polyadenylation Complex CFII Recognizes Downstream Cis‐element for Pre‐mRNA Polyadenylation Through Interaction with an RNA‐Binding Protein in Arabidopsis” are binding result and Kd values, retold here.

Data set [1] concerns the target T1, MBP-FPARRM-His (three RRM domains of FPA) (Arabidopsis thaliana, UniProt Q8LPQ9 1-307).
T1 sequence: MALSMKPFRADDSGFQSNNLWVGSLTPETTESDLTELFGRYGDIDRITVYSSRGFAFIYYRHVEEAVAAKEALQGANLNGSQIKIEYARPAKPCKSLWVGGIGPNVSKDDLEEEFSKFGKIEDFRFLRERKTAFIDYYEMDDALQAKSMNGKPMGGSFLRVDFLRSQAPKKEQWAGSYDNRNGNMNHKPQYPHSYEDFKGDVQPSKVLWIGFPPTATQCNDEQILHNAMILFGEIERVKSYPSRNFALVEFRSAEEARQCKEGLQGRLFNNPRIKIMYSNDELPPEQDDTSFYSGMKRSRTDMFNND
The data set is described as follows: ITC; 25 C, 150 mM NaCl, pH 8.0; EMSA: 10 mM HEPES-KOH pH 7.3, 20 mM KCl, 1 mM MgCl2, 1 mM DTT, 5% glycerol, 0.1 ug/uL tRNA, room temperature 30 min (protein eluted with 200 mM imidazole); ITC: 10 mM HEPES-KOH pH 8.0, 150 mM NaCl, 200 mM imidazole, 25 C. The conditions noted are these: protein: recombinant; tags: MBP (pMAL-c2x), 6xHis.

Data set [2] addresses T2, MBP-FCARRM-His (RRM domains of FCA) (UniProt O04425 1-343).
T2 sequence: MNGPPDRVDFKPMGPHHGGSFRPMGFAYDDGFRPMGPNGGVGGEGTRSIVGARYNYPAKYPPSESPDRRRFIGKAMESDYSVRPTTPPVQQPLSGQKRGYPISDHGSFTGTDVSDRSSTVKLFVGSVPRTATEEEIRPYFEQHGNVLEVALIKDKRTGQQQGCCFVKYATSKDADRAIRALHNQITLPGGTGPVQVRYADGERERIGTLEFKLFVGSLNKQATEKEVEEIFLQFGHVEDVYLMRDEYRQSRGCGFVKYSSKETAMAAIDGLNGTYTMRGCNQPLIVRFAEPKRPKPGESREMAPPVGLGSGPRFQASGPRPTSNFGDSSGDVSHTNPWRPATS
Description: competition; unlabeled GU-rich competes labeled GU-rich probe; EMSA: 10 mM HEPES-KOH pH 7.3, 20 mM KCl, 1 mM MgCl2, 1 mM DTT, 5% glycerol, 0.1 ug/uL tRNA, room temperature 30 min (protein eluted with 200 mM imidazole); ITC: 10 mM HEPES-KOH pH 8.0, 150 mM NaCl, 200 mM imidazole, 25 C. The conditions noted are these: protein: recombinant; tags: MBP (pMAL-c2x), 6xHis. (In EMSA bound probe runs differently from free probe, usually more slowly.)

Data set [3] addresses T1, MBP-FPARRM-His (three RRM domains of …). The data set is described as follows: EMSA; 2 nM probe, 2000 nM protein; EMSA: 10 mM HEPES-KOH pH 7.3, 20 mM KCl, 1 mM MgCl2, 1 mM DTT, 5% glycerol, 0.1 ug/uL tRNA, room temperature 30 min (protein eluted with 200 mM imidazole); ITC: 10 mM HEPES-KOH pH 8.0, 150 mM NaCl, 200 mM imidazole, 25 C. The conditions noted are these: protein: recombinant; tags: MBP (pMAL-c2x), 6xHis; label: Biotin at both ends.

Data set [4] has as its target T2, MBP-FCARRM-His (RRM domains of FCA). Description: EMSA; 2 nM probe, 600 nM protein; EMSA: 10 mM HEPES-KOH pH 7.3, 20 mM KCl, 1 mM MgCl2, 1 mM DTT, 5% glycerol, 0.1 ug/uL tRNA, room temperature 30 min (protein eluted with 200 mM imidazole); ITC: 10 mM HEPES-KOH pH 8.0, 150 mM NaCl, 200 mM imidazole, 25 C. The conditions noted are these: protein: recombinant; tags: MBP (pMAL-c2x), 6xHis; label: Biotin at both ends.

The target of data set [5] is T1, MBP-FPARRM-His (three RRM domains of …). The data set is described as above. The conditions noted are these: protein: recombinant; tags: MBP (pMAL-c2x), 6xHis; label: Biotin at both ends.

On to GUUGUUUUGUUUGUUGUUUUGUUU (ssRNA) [GU-rich RNA (unlabeled; ITC and competitor)], for which the binding result in data set [1] is on record as “no binding”; in data set [2], “binds”. For the molecule UUCUCUUCUUCUCUUCUUCUCUUC (ssRNA) [UC-rich probe (antisense of GA-rich; EMSA, biotin)], the binding result in data set [3] was “no binding”.

The Kd is the constant that tells how readily two partners part at equilibrium. On to GAAGAGAAGAAGAGAAGAAGAGAA (ssRNA) [GA-rich RNA (unlabeled; ITC and competitor)], for which the Kd in data set [1] is about 20 µM.

Turning to GUUGUUUUGUUUGUUGUUUUGUUU (ssRNA) [GU-rich probe (EMSA, biotin)], the binding result is “binds” in data set [4] and “no binding” in data set [5].
